Data on two substances can be found in publication PMC2121029.

Where two headings read alike, the source gives them in different places.

The target of assay [1] is beta-actin from bovine erythrocytes (bovine) (UniProt P60712).
The target is the same in assay [2]. Nature of the assay: kinetic simulation.
Assay [3] has the same target. Nature of the assay: shift of the critical concentration for actin polymerization.
Assay [4] has as its target alpha-actin from chicken skeletal muscle (chicken) (UniProt P68139). Nature of the assay: actin uncapping assay.
Assay [5] shares this target. Nature of the assay: kinetic simulation.

By koff is commonly meant the rate constant with which the complex falls apart. A low value points to slow dissociation. Broadly, the kon is a measure of how fast the partners come together. Read a high kon as fast association. One may read the Kd as the equilibrium constant for the complex coming apart.

As to “capping protein of chicken kidney and brain containing the beta2 subunit (CP-beta2) (from UniProt P13127;P28497;P14315-2) (complex)”, the off-rate (koff) in assay [1] turned out to be 0.00031 s⁻¹. In assay [2], this substance came in with an off-rate constant (koff) of 0.00095 s⁻¹ and an on-rate constant (kon) of 3.9e+06 M⁻¹ s⁻¹. Moreover, the equilibrium dissociation constant (Kd) in assay [3] turned out to be 0.08 nM.

With “capping protein of chicken skeletal (pectoral) muscle containing the beta1 subunit (CP-beta1) (from UniProt P13127;P28497;P14315-1) (complex)”, the half-life of a capped barbed end with PIP2 in assay [4] amounted to 46 s. This substance also had an off-rate constant (koff) in assay [5] of 0 s⁻¹.
